Test results published in paper PMC7949094, “Pantoea stewartii WceF is a glycan biofilm-modifying enzyme with a bacteriophage tailspike-like fold” (The Journal of Biological Chemistry, 2021).

What was measured:
[1] = biological target: the molecule itself; assay: SEC; size-exclusion chromatography of purified WceF (Fig. S2); conditions not shown
[2] = biological target: the molecule itself; assay: SDS-PAGE without heating; purified HK620TSP and P22TSP in 2% (w/v) SDS, with or without heating for 5 min
[3] = biological target: the molecule itself; assay: SDS-PAGE without heating

B1: Pantoea stewartii WceF (residues 29-736, lacking the Tat signal peptide) (enzyme)
chain: KNTGLALKSVDATAIPKGDVPILTPENVYAMPPQFWQNFQGKLWIGRAGSDARQPGNQIPVFLRDANGNLAQITQPITLNKGNFDQFVKDNAALIANPSHAMALEDSNGQTVFNIPDVSQPGQAAFSQRLAQPAGYQLIGEIPSVDDLRKTRPLFEGAKIKLKSWHPGLEVGGGEFVGSFQPAQDDQGVIFSGDGFHWRRVVDDYNRLSLFDFGAIADGKTDSAPAIKAMYQWSQQSDQPICVQFPAGTFFVTGCDFGEEQRRFFRISGAMVNFGYFPATTIVSDGQSPFVFEVSARWVEISNLIFNGNTDTKPNRQGLLRNTCPGGQFFRGACLRFNNVGGTALSLLDTLDCKIDQWYASACTGDVIQAGWSGQKKGNWDHSTAIELSNFNAQHCKGGKVLNLPRCSQSLIHNGWIEHCDNPGDISNGQWIIDALSLEDCKNPLIAWHSRLNTRQTNLQSGSWIDNSEQGDRWLSAWEMGSTRVESYGVAIDGSLKYNYLTSRWLLENNTSQPVWYELANLYSPTVGDSWEIEVFGQSQFNNGTDSEPLMNLIDGRNTGGRAVIHVQRKKDHAEASWSAEGSSPVLDVRYVAKTDTDTQVFIRLAGWTPSAAIMIKSTAKDRFVTGRCARVDAKMAKATPDSGSHAAPQRFSLHNGKAGVGANEQGDLLLASRALSADNVDTRKPEGFVSVVINGKTVALPYFAIKA
notes: WceF of Pantoea stewartii subsp. stewartii DSM 30176, amplified from genomic DNA; recombinant construct residues 29-736 without the N-terminal 28 amino acids of the Tat signal peptide (the methods say aa 28-736); residues 34-736 resolved in the electron density; His6 tag followed by a TEV site, cleaved off for the purified protein; The forward primer encodes ...ENLYFQG-AKNTGL, so a glycine …
- stoichiometry N [1]: 3

B2: bacteriophage P22 tailspike protein (natural protein)
chain: YDPDQYSIEADKKFKYSVKLSDYPTLQDAASAAVDGLLIDRDYNFYGGETVDFGGKVLTIECKAKFIGDGNLIFTKLGKGSRIAGVFMESTTTPWVIKPWTDDNQWLTDAAAVVATLKQSKTDGYQPTVSDYVKFPGIETLLPPNAKGQNITSTLEIRECIGVEVHRASGLMAGFLFRGCHFCKMVDANNPSGGKDGIITFENLSGDWGKGNYVIGGRTSYGSVSSAQFLRNNGGFERDGGVIGFTSYRAGESGVKTWQGTVGSTTSRNYNLQFRDSVVIYPVWDGFDLGADTDMNPELDRPGDYPITQYPLHQLPLNHLIDNLLVRGALGVGFGMDGKGMYVSNITVEDCAGSGAYLLTHESVFTNIAIIDTNTKDFQANQIYISGACRVNGLRLIGIRSTDGQGLTIDAPNSTVSGITGMVDPSRINVANLAEEGLGNIRANSFGYDSAAIKLRIHKLSKTLDSGALYSHINGGAGSGSAYTQLTAISGSTPDAVSLKVNHKDCRGAEIPFVPDIASDDFIKDSSCFLPYWENNSTSLKALVKKPNGELVRLTLATL
notes: also called P22TSP; source: purified
- stoichiometry N [2]: 3

B3: bacteriophage HK620 tailspike protein (natural protein)
chain: DPDQFRAIIESPEGAGHVGYQYRRNTGSTMRMVSDVLDERVSLWDFHCDPSGNVIQPGPNVDSRQYLQAAIDYVSSNGGGTITIPAGYTWYLGSYGVGGIAGHSGIIQLRSNVNLNIEGRIHLSPFFDLKPFQVFVGFDNGDPASSGNLENCHIYGHGVVDFGGYEFGASSQLRNGVAFGRSYNCSVTGITFQNGDVTWAITLGWNGYGSNCYVRKCRFINLVNSSVNADHSTVYVNCPYSGVESCYFSMSSSFARNIACSVELHQHDTFYRGSTVNGYCRGAYVVMHAAEAAGAGSYAYNMQVENNIAVIYGQFVILGSDVTATVSGHLNDVIVSGNIVSIGERAAFSAPFGAFIDIGPDNSGASNVQDIQRVLVTGNSFYAPANITDSAAITLRANLNGCTFIANNFDCRYMVYNAPGTTSPVVQNLVWDKSNVIGGTHANQRAGQNLFDMQFASVVNSTIEVQLSCEDLSMFSCILFPASCQLSYSKITVDSAWTKSMSNTAVFEGNQQAGANVYVSYPATVNLTSYNTQGAVPFFSTDTNYAWVTSAYSLSINENLDFSPPATYTNKANGQLVGVGYNEIGGVRSVSVRLMLQRQV
notes: also called HK620TSP; source: purified
- stoichiometry N [3]: 3
